{
  "source": "paper PMC5906708",
  "about": "“Manipulation of Light Signal Transduction Factors as a Means of Modifying Steroidal Glycoalkaloids Accumulation in Tomato Leaves”",
  "binders": {"B1": {"name": "GAME4 promoter G-box probe (dsDNA)", "DNA 1": "GTTGGGGGGCTAAATTATATTCACGTGATTGTATTTTTTTTTTTAATTGC", "DNA 2": "GCAATTAAAAAAAAAAATACAATCACGTGAATATAATTTAGCCCCCCAAC"}, "B2": {"name": "GAME1 promoter G-box probe (dsDNA)", "DNA 1": "GATTGCTTAAAGAGAGAATACCACGTGATGTCCCCCACACCACACCTGCT", "DNA 2": "AGCAGGTGTGGTGTGGGGGACATCACGTGGTATTCTCTCTTTAAGCAATC"}, "B3": {"name": "GAME17 promoter G-box probe (dsDNA)", "DNA 1": "CGACATTTGATTGAATTTTAAATTTCACACGTGATACATAGATTGAGATT", "DNA 2": "AATCTCAATCTATGTATCACGTGTGAAATTTAAAATTCAATCAAATGTCG"}, "B4": {"name": "GAME12 probe (dsDNA)", "DNA 1": "GAAACGATATAATATACGTGATACAAGTTTATTAATAAATCAATGGCCCA", "DNA 2": "TGGGCCATTGATTTATTAATAAACTTGTATCACGTATATTATATCGTTTC"}, "B5": {"name": "GAME2 probe (dsDNA)", "DNA 1": "ATCCCAAAAGAGTTGTTAGGTCGTGCACAAAACCCGTTTTCTGCGAAAAT", "DNA 2": "ATTTTCGCAGAAAACGGGTTTTGTGCACGACCTAACAACTCTTTTGGGAT"}, "B6": {"name": "GAME6 probe (dsDNA)", "DNA 1": "ATAATAACACCGTTTCTCTGCTTTAAGCGTGCTTTTTATCTCATAACTAAAAACT", "DNA 2": "AGTTTTTAGTTATGAGATAAAAAGCACGCTTAAAGCAGAGAAACGGTGTTATTAT"}, "B7": {"name": "GAME11 probe (dsDNA)", "DNA 1": "AAGTAAATTATAAATATACGTGACGAAAACGATCTTTAAAATTCTTTGTA", "DNA 2": "TACAAAGAATTTTAAAGATCGTTTTCGTCACGTATATTTATAATTTACTT"}, "B8": {"name": "GAME18 probe (dsDNA)", "DNA 1": "TGATACAACTAAAAGACATACGTTTAAAAAAGCAAATTGATCAAGTCGTTTG", "DNA 2": "CAAACGACTTGATCAATTTGCTTTTTTAAACGTATGTCTTTTAGTTGTATCA"}},
  "data": [
    {"biological_target": "SlPIF3 (GST-PIF3) (Solanum lycopersicum, UniProt A0A3Q7EQR7 388-618)", "sequence (A0A3Q7EQR7 entry or part of it)": "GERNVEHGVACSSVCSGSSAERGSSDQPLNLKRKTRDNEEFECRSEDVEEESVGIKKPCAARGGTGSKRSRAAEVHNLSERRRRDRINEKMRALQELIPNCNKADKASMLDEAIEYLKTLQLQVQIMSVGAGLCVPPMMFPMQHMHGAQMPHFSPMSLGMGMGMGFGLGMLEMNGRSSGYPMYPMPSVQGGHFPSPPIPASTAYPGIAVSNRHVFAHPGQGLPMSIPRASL", "assay": "EMSA; LightShift Chemiluminescent EMSA kit, 25 min at 22 C, 6% native PAGE; buffer, salt and pH not stated", "settings": "protein: recombinant; tags: GST (pGEX-4T-1); chain copies: 2; label: biotin", "values": [
      {"binder": "B1", "binding result": "binds"},
      {"binder": "B2", "binding result": "binds"},
      {"binder": "B3", "binding result": "binds"}
    ]},
    {"biological_target": "SlPIF3 (GST-PIF3) (Solanum lycopersicum, UniProt A0A3Q7EQR7 388-618)", "assay": "EMSA; LightShift Chemiluminescent EMSA kit, 25 min at 22 C, 6% native PAGE; buffer, salt and pH not stated", "settings": "protein: recombinant; tags: GST (pGEX-4T-1); chain copies: 2; label: biotin; blunt", "values": [
      {"binder": "B4", "binding result": "no binding"},
      {"binder": "B5", "binding result": "no binding"},
      {"binder": "B6", "binding result": "no binding"},
      {"binder": "B7", "binding result": "no binding"},
      {"binder": "B8", "binding result": "no binding"}
    ]},
    {"biological_target": "T1, SlHY5 (GST-HY5) (Solanum lycopersicum, UniProt Q9SM50 1-158)", "T1 sequence": "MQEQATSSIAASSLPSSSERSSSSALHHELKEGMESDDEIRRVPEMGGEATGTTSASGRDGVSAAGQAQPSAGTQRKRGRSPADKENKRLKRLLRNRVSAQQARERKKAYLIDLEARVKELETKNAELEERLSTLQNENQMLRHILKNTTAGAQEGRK", "assay": "EMSA; LightShift Chemiluminescent EMSA kit, 25 min at 22 C, 6% native PAGE; buffer, salt and pH not stated", "settings": "protein: recombinant; tags: GST (pGEX-4T-1); chain copies: 2; label: biotin", "values": [
      {"binder": "B1", "binding result": "binds"},
      {"binder": "B2", "binding result": "binds"},
      {"binder": "B3", "binding result": "binds"}
    ]},
    {"biological_target": "T1, SlHY5 (GST-HY5)", "assay": "EMSA; LightShift Chemiluminescent EMSA kit, 25 min at 22 C, 6% native PAGE; buffer, salt and pH not stated", "settings": "protein: recombinant; tags: GST (pGEX-4T-1); chain copies: 2; label: biotin; blunt", "values": [
      {"binder": "B4", "binding result": "no binding"},
      {"binder": "B5", "binding result": "no binding"},
      {"binder": "B6", "binding result": "no binding"},
      {"binder": "B7", "binding result": "no binding"},
      {"binder": "B8", "binding result": "no binding"}
    ]}
  ]
}
